Publication PMC4414916 (Biochemistry, 2015)

How the values were obtained:
[1] = tested on: GLIC–Glyα1–ICD chimeras; assay: Proton concentration–response; format: cell-based, G. violaceus GLIC / rat Glyα1; details: proton activation (pH50), GLIC–Glyα1–ICD set, TEVC, −60 mV, ± standard error
[2] = tested on: GLIC–GABAAρ1–ICD chimeras; assay: Proton concentration–response; format: cell-based, G. violaceus GLIC / human GABAAρ1; details: proton activation (pH50), GLIC–GABAAρ1–ICD set, TEVC, −60 mV, ± standard error
[3] = tested on: GLIC–nAChα7–ICD chimeras; assay: Proton concentration–response; format: cell-based, G. violaceus GLIC / human nAChRα7; details: proton activation (pH50), GLIC–nAChα7–ICD set, TEVC, −60 mV, ± standard error
[4] = tested on: GLIC–nAChα7–ICD chimeras and wild-type GLIC; format: cell-based, G. violaceus GLIC / human nAChRα7; details: pH 7.5 to 5, after 48 h

B1: WT GLIC: wild-type Gloeobacter violaceus proton-gated pentameric ligand-gated ion channel (protein)
chain: QDMVSPPPPIADEPLTVNTGIYLIECYSLDDKAETFKVNAFLSLSWKDRRLAFDPVRSGVRVKTYEPEAIWIPEIRFVNVENARDADVVDISVSPDGTVQYLERFSARVLSPLDFRRYPFDSQTLHIYLIVRSVDTRNIVLAVDLEKVGKNDDVFLTGWDIESFTAVVKPANFALEDRLESKLDYQLRISRQYFSYIPNIILPMLFILFISWTAFWSTSYEANVTLVVSTLIAHIAFNILVETNLPKTPYMTYTGAIIFMIYLFYFVAVIEVTVQHYLKVESQPARAASITRASRIAFPVVFLLANIILAFLFFGF
modifications: left off: FLAG, C-terminal, state not stated
**Q.** Which “−log EC50” value [1] does the source give for B1 here?
**A.** 5.81 ± 0.05

**Q.** And the “−log EC50” value [2]?
**A.** 5.81 ± 0.05

**Q.** And the “−log EC50” value [3]?
**A.** 5.81 ± 0.05

**Q.** And the “effect of RIC-3 co-expression on current amplitudes” value [4]?
**A.** did not alter
